The assay deals with T1, recombinant human DKK1 (human, UniProt O94907 32-266).
T1 sequence: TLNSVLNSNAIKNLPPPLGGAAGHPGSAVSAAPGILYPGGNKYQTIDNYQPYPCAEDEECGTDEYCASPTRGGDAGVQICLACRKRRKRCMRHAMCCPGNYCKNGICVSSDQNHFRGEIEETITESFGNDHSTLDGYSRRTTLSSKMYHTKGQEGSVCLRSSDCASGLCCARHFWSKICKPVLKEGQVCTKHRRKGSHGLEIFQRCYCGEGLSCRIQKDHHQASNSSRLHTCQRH
Kind of assay: cell-based or functional assay.

The values that follow come from patent US20120052070A1 (Novartis, published 2012).

B1: anti-DKK1 FAb MOR04910 (Fab, V domains shown)
VH: QVQLVESGGGLVQPGGSLRLSCAASGFTFSSYWMSWVRQAPGKGLEWVSGISYSGSNTHYADSVKGRFTISRDNSKNTLYLQMNSLRAEDTAVYYCARMGIDLDYWGQGTLVTVSS
VL: DIALTQPASVSGSPGQSITISCTGTSSDVGGFNYVSWYQQHPGKAPKLMIHDGSNRPSGVSNRFSGSKSGNTASLTISGLQAEDEADYYCQSWDVSPITAVFGGGTKLTVLG
For the molecule B1, the “EC50, reactivation of DKK1 inhibited wnt signaling” value was < 1 nM.

B2: anti-DKK1/4 antibody (antibody, V domains shown)
VH: QVQLVESGGGLVQPGGSLRLSCAASGFTFSSYWMSWVRQAPGKGLEWVSGISYSGSNTHYADSVKGRFTISRDNSKNTLYLQMNSLRAEDTAVYYCARMGIDLDYWGQGTLVTVSS
VL: DIALTQPASVSGSPGQSITISCTGTSSDVGGFNYVSWYQQHPGKAPKLMIHDGSNRPSGVSNRFSGSKSGNTASLTISGLQAEDEADYYCQSWDVSPITAVFGGGTKLTVLG
Take B2: the “apparent EC50, TCF/LEF luciferase reporter (SuperTopflash, Kremen) with 10 ng/ml rhDKK1 and Wnt3a conditioned medium” value was found to be 0.16 nM.
